Assay [1] addresses T1, Recombinant human TNFR1-Fc (human, UniProt P19438 30-211, limits assumed).
T1 construct: bought reagent; also called hTNFR1:Fc; not shown: Fc part; not described
T1 sequence (looked up): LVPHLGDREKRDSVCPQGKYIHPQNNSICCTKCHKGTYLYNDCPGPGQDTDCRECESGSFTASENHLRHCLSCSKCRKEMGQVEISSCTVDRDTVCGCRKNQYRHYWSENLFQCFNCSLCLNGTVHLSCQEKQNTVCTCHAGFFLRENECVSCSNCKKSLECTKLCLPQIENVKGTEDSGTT
Put plainly: ELISA: dAb on coated recombinant human TNFR1-Fc, anti-Vh detection. A general note: An ELISA detects its analyte on a solid surface through an enzyme-linked reagent.

The target of assay [2] is pre-existing anti-VH ADA in human serum. Briefly: ADA confirmation assay (MSD): 10 ug/mL test material against labelled DOM1H-131-206, mean of 10 sera.
Assay [3] has the same target. Put plainly: ADA confirmation assay (MSD): 10 ug/mL test material against labelled DOM1H-131-206; share of 10 ADA-positive sera with binding.
Assay [4] deals with T1, Recombinant human TNFR1-Fc. Briefly: ELISA: dAb on coated recombinant human TNFR1-Fc.
Assay [5] concerns the target pre-existing anti-VH ADA in human serum. Briefly: ADA confirmation assay (MSD): 10 ug/mL test material against labelled DOM1H-131-206, mean of 10 sera. The source holds these as a separate data set.
For assay [6] the target is unchanged. Briefly: ADA confirmation assay (MSD): 10 ug/mL test material against labelled DOM1H-131-206; share of 10 ADA-positive sera with binding. This is another data set of the same source.
Assay [7] shares this target. Put plainly: ADA confirmation assay of Example 2 (MSD): test material against labelled DOM1H-131-206.

Read-outs that look alike come from different tables or passages of the source.

The EC50 is the concentration at which the effect is half-maximal.

B1: DOM1H-131-206 A84T (other, name in Kabat numbering)
VH: EVQLLESGGGLVQPGGSLRLSCAASGFTFAHETMVWVRQAPGKGLEWVSHIPPDGQDPFYADSVKGRFTISRDNSKNTLYLQMNSLRTEDTAVYHCALLPKRGPWFDYWGQGTLVTVSS
notes: VH dAb variant
Take B1: the EC50 in assay [1] was found to be 0.79 nM. For the same molecule, the Mean % inhibition of signal in confirmation assay in assay [2] is 91%. The % subjects with ADA binding (10 subjects) (% of subjects) in assay [3] worked out at 100.

B2: DOM1H-131-206 C-terminal ASTKGP (other)
VH: EVQLLESGGGLVQPGGSLRLSCAASGFTFAHETMVWVRQAPGKGLEWVSHIPPDGQDPFYADSVKGRFTISRDNSKNTLYLQMNSLRAEDTAVYHCALLPKRGPWFDYWGQGTLVTVSSASTKGP
notes: VH dAb variant
With B2, the “fold change of EC50 against the parental dAb DOM1H-131-206” value in assay [4] is roughly 5 fold. In assay [5], the Mean % inhibition of signal in confirmation assay was determined as 42.6%. In assay [6], this molecule gave a % subjects with ADA binding (10 subjects) (% of subjects) of 60.

B3: VHH2(f) + A (VHH)
VHH: EVQLVESGGGLVQPGGSLRLSCAASGRTFSYNPMGWFRQAPGKGRELVAAISRTGGSTYYPDSVEGRFTISRDNAKRMVYLQMNSLRAEDTAVYYCAAAGVRAEDGRVRTLPSEYTFWGQGTQVTVSSAAAEVQLVESGGGLVQPGGSLRLSCAASGRTFSYNPMGWFRQAPGKGRELVAAISRTGGSTYYPDSVEGRFTISRDNAKRMVYLQMNSLRAEDTAVYYCAAAGVRAEDGRVRTLPSEYTFWGQGTQVTVSSA
For the molecule B3, the Mean % Inhibition in assay [7] came out at 17.5%.

These data come from US20250136721A1 (GlaxoSmithKline, published 2025).
